Source: patent publication US20250277027A1 (POPULAS BIOPHARMACEUTICAL WUHAN, published 2025)

Key:
SCN9A-4-B2M = test: SPR, ligand SCN9A-4-B2M, analyte 5C12D2C8, 1:1 binding fit; analyte at 12.5 to 400 nM per paragraph 79
polypeptide C9797BL020-7 [1] = target: T1, polypeptide C9797BL020-7; test: affinity sorting, kinetic fit in RU, antibody as analyte solution
T1 construct: also called antigen peptide
T1 peptide: CDSVNVDKQPKYEYS

polypeptide C9797BL020-7 [2] = target: T1, polypeptide C9797BL020-7; test: SPR, antibody at 12.5, 25, 50, 100, 200 and 400 nM

kon (SCN9A-4-B2M): 28100 M⁻¹ s⁻¹
Kd (polypeptide C9797BL020-7 [1]): 4.55 nM
koff (polypeptide C9797BL020-7 [1]): 0.00023 s⁻¹
kon (polypeptide C9797BL020-7 [1]): 50600 M⁻¹ s⁻¹
Kd (polypeptide C9797BL020-7 [2]): 8.78 nM
koff (polypeptide C9797BL020-7 [2]): 0.000247 s⁻¹
B1: monoclonal antibody 5C12D2C8 (antibody, V domains shown)
VH: EVQLVESGGDLVKPGGSLKLSCAASGFTFSSGGMSWVRQTPDKRLEWVATISNGGGETYYEDSVKGRFTISRDNAKNTLYLQMNSLKSEDTAMYYCAREEYEGTWYEDVWGAGTTVTVSS
VL: DVLMTQTPLSLPVSLGDQASISCTSSQSGVHSNGNTELEWYLQKPGQSPKLLIYKVSNRTSGVPDRFSGSGSGTDFTLKISRVEAEDLGVYYCGQGSHVGRTFGGGTKLEIKR
